Source: patent US20120027773A1

Tests used:
[1] = molecular target: human wild-type RON (cell surface) (human) (UniProt Q04912); assay: FACS, 10 ug/ml, PC3 cells, 4 C; negative control
[2] = molecular target: delta 160 RON variant (cell surface) (human) (UniProt Q04912); assay: FACS, 10 ug/ml, HT-29 cells, 4 C; negative control

murine IgG control (antibody) was tested, and the PC3 % cell surface binding [1] was 5.5% and the HT-29 % cell surface binding [2] was 5.62%.
